Assays:
[1] = target: recombinant in vitro phosphorylated full-length TDP-43 (TDP-43-MBP phosphorylated with casein kinase 1 delta) (human) (UniProt Q13148); experiment: SPR Biacore 8K, 25 C, in vitro phosphorylated TDP-43 amine-coupled on CM5, IgG as analyte (avidity)
[2] = target: recombinant in vitro phosphorylated full-length TDP-43 (TDP-43-MBP phosphorylated with casein kinase 1 delta) (human) (UniProt Q13148); experiment: SPR Biacore 8K, 25 C, in vitro phosphorylated TDP-43 amine-coupled on CM5, Fab as analyte

Binder	Kd [1]	koff [1]	kon [1]	Kd [2]	koff [2]	kon [2]
antibody 31F3 (human IgG) (antibody, V domains shown) VH: QVQLEQSGAEVKRPGASVKVSCKASGYTFTGYYLHWVRQAPGQGLEWMGRINPGSGGTKYAQKFQGRVSMTRDTSISTAYMEVNRLRPDDTAVYYCARYQVYGERGRYMDVWGKGTTVTVSS VL: QSALTQPASVSGSPGQSITISCTGTSSDVGTYDLVSWYQQHPGKAPKLIIYEDNKRPSGLSNRFSGSKSGNTASLTISGLQADDEADYYCCSYAAISTLIFGGGTKVTVL	0.01 nM	0.0003 s⁻¹	2.5e+07 M⁻¹ s⁻¹			
30E1 Fab (Fab, V domains shown) VH: QVQLVQSGAEVKKPGASVKVSCKTSGYTFTDYYLHWVRQAPGQGLEWMGRINPNSGNTNYAQKFQGRVSVTRDTSISTAYMELSRLSSDDTAVYFCARVKIVVLRSTPTLYYFDYWGQGTLVTVSS VL: QSALTQPASVSGSPGQSITISCTGTSSDVGTYDLVSWYQQHPGKAPKVMIYEGSKRPSGVSNRFSGSKSGNTASLTISGLQAEDEADYYCCSYAGTSTLVFGGGTKVTVL				34 nM	0.11 s⁻¹	3.1e+06 M⁻¹ s⁻¹
antibody 30E1 (human IgG) (antibody, V domains shown) VH: QVQLVQSGAEVKKPGASVKVSCKTSGYTFTDYYLHWVRQAPGQGLEWMGRINPNSGNTNYAQKFQGRVSVTRDTSISTAYMELSRLSSDDTAVYFCARVKIVVLRSTPTLYYFDYWGQGTLVTVSS VL: QSALTQPASVSGSPGQSITISCTGTSSDVGTYDLVSWYQQHPGKAPKVMIYEGSKRPSGVSNRFSGSKSGNTASLTISGLQAEDEADYYCCSYAGTSTLVFGGGTKVTVL	0.02 nM	0.00061 s⁻¹	3e+07 M⁻¹ s⁻¹			
31F3 Fab (Fab, V domains shown) VH: QVQLEQSGAEVKRPGASVKVSCKASGYTFTGYYLHWVRQAPGQGLEWMGRINPGSGGTKYAQKFQGRVSMTRDTSISTAYMEVNRLRPDDTAVYYCARYQVYGERGRYMDVWGKGTTVTVSS VL: QSALTQPASVSGSPGQSITISCTGTSSDVGTYDLVSWYQQHPGKAPKLIIYEDNKRPSGLSNRFSGSKSGNTASLTISGLQADDEADYYCCSYAAISTLIFGGGTKVTVL				2.5 nM	0.017 s⁻¹	6.8e+06 M⁻¹ s⁻¹

Source: patent US20240150449A1
